Our source for the IC50, percent inhibition of specific binding and EC50 values is patent US20190000964A1.

A value given as a limit tells only on which side of the number the result lay.

The target of one assay is human CCR5 receptor (hCCR5) (human), P51681. Put plainly: inhibition of gp120BaL/sCD4 binding to Cf2Th/synR5 cells (FIG. 4A).
Sequence of human CCR5 receptor (hCCR5) (human), P51681 (P51681 whole entry): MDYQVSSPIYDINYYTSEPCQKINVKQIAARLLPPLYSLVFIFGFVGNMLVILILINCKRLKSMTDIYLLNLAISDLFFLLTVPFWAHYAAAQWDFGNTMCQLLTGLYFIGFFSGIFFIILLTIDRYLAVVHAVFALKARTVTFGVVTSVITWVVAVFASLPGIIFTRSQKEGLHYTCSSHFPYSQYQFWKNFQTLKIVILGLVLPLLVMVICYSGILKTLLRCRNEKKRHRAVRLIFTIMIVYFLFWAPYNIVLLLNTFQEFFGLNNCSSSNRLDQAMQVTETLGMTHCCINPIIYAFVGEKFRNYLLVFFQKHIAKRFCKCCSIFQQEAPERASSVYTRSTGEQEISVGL
As a reminder, the IC50 is the midpoint of a concentration-inhibition curve. A high value points to lower potency. Molecule ASTTTNYT (modifications not checked) [DAPTA (Dala1-peptide T-amide)] registered an IC50 of 55 pM.

Another assay shares this target. Put plainly: inhibition of gp120CM235/sCD4 binding to Cf2Th/synR5 cells (FIG. 4B).
As for ASTTTNYT (modifications not checked) [DAPTA (Dala1-peptide T-amide)], the IC50 came to 320 pM and the percent inhibition of specific binding was > 80%.

The target is the same in another assay. Nature of the assay: inhibition of gp120CM235/sCD4 binding to GHOST CD4.CCR5 cells (FIG. 4C).
For ASTTTNYT (modifications not checked) [DAPTA (Dala1-peptide T-amide)], the IC50 is 51 pM.

For another assay the target is unchanged. Put plainly: inhibition of gp120/sCD4 complex binding to CCR5-expressing Cf2Th cells by competing peptide.
As usually defined, the EC50 is the concentration giving half of the maximal effect. High values mean lower potency in that assay, low ones higher potency in that assay. With SSEYR (modifications not checked), the EC50 was 300 pM.
Same read-out and setting: then NTSYR (modifications not checked), with 100 pM.
Consider NSNYS (modifications not checked), for which the EC50 was found to be 500 pM.
Regarding NSEYR (modifications not checked), the EC50 is 80 pM.
Take YSSYR (modifications not checked): the EC50 was 600 pM.
For the molecule SSTYR (modifications not checked), the concentration for a half-maximal effect (EC50) was 100 pM.
Same read-out and setting: then NSSYR (modifications not checked), with 40 pM; and TTSYR (modifications not checked), with 100 pM; and NNRYR (modifications not checked), with 200 pM.
On the same count and under the same terms, then TISYR (modifications not checked), with 400 pM; and TTSYT (modifications not checked), with 50 pM.
With TSNYS (modifications not checked), the EC50 was determined as 200 pM.
Take NSSYT (modifications not checked): the EC50 is 200 pM.
